{"source": "patent US20230226096A1", "about": "(Orna Therapeutics, Inc., priority 2020, published 2023)", "molecules": {"B1": {"name": "Chicken picornavirus 1 (nucleic acid)", "DNA": "GTGGCCGACTTGCAGAACTTCCTACCGAACCACCACCTCACCCCCATAACTCCTTCCCTCTACACCTTCCGCTATGGTGGTTACCACTGCTTTATTGCCTTGACTGAGAATGGCCACCCCCTCGACACCTGCCCCCTACTGCCCCACCGCGCAACCTTTTGCTTGTCCACTCGGTTGGAGAGGCATGGGGGCCCCGTTCATATCCCCAGTCCAGTTGGTGACCTTCCCCCTCCCCGTCCGGTAGATGGTCCAGAGGGCTTTGCCGACGCCCTCTATGATGCTTGCTTGTCTTTCCTCCGTCAGCGCGAGCATGCACTTGTCGAGCCCACGGAAACACAGCCTAGCTTTTGCTTCTCTCACCCTGCGTACCCTGGGCGCCTTCCGCTCGAGATTCGCTTTGTTCGACACCCTGGCGTCCCCCCACCGCTACGTGATTTTACTCGTGGCATACACCGCCCTGGCGTTCAGTACATTCCACTGCCTAATTTGGGTGGCCTCCCTCAATCTCCCGCACCCCCCATTGCGCACGTCATCACCGCCGCCGCTAACGCGATCCGGCGCGGTTCTCACTGGCACTGTCCCCTCGTCCGCCGGGTTTCCACTCATGGTTGGCTTTTCACTTATTCTGGTTACTGGTGTTCCATCCTACTTCATGATGGTCGCCATGACCATGAC"}, "B2": {"name": "Chicken orivirus 1 (nucleic acid, listed as Orivirus sp.)", "DNA": "AAACCCTCACGAGTGCTTGTGGTAGGTCCCAGGCCAATATTCTTCGTAAGGCTTGGTTCCAATTTTCCACCACTCGTGTTTGGGTTCTGGCCTATGGTACCCAGAGGGGCGGTTTGGGGGAATTAACTCCCCCTCCCCTGTGGTCCTATACCACCCCACACCTCTGTGGGCTTTCTTTACTATCTTCTTGTTTTCCGACTTTTAAACACTAGGCAGGCGCGCCTAGTCATACACCGCCCGGCTGGTCTTTCCAGCTCTTGTGGGCGGTGCGCGCTGGTCCATCGTGCCCAGCGACATAGCACCTTGTGGACACCTCCGAACGCCCTCCCCTGTATGGGGTGGTGCCCAGGGGTTTCAGTGTGGTGACACACTCCCTGGGGCCCGAAAGGCTAGTGTGCAACAGGTGAGGTACAGCCAGCTGCCCCCGTGGCTGGAGGGACCAAGCTTGTGAAGCACACCTCACCTTCTTGGGGGTGGGCTAGTAAGTGGTGAAAGCATAGTGTCCGTGTCGCTGGCCAACACTTTGGGTCAAGTCCAGCCACTCAGTGAGTAGATGCCCAGGAGGTACCCCTAGTGGATCTGACTTGGGGCCTGTTACTTAATGCAGGTTAAAAACTATGAAAGCTGAGTAGTGTAGCCCGGCTGGTGGCTTCTCTTCCTTATTCATTCTATTTT"}, "B3": {"name": "Chicken gallivirus 1 (nucleic acid, listed as Gallivirus sp.)", "DNA": "GGTTAACTTGTTTAACCAAGGCTTCCGTGCAGGGCTTGCACGTTAGGAGTTCATGTTGATTCATGCTCCAATGCCCAAAACTTTGTGTGTTTGTTTATGTCTTTCCCAAAGTTTCCCCCAAGGTTTCGGTACTCAAACCTTAATTCCTAGTCCCATCTTTTGGGCCTTAGTATCTAGGAAATGTACCCGTGCCTTGACGAACGTAAGAAAGCTGTCTTTTATTGAACGGTTCTAATGAACTAAGTATAACTGGCTCGCGCCACCTGGTGTGTGCCGTTGGAATTCCCCCATGGTAACATGGTCCAACGGGCCCGAAAGGCTAGTGGGCAATCGGTCCTCCAAGGAAGGGGTTCCCACCCCGACCTGAACAGGATTTGATGAAGCTCACCTCCCAGGCTCCTAACCCCAAGGAAGTTTACTTATAGTAATTAGAATTTAGTATGTAATTGCTGGCAATCTTGCTAGTAGTCAGGAACGTTATGACCAAATGAGTAGACCCCCAGAAGGTACCCCATTATATGGGATCTGATCTGGGCCTCATACTGTGTGTCTCCCCACATATGAGGTTAAAACCATGAAAGTTTGGTCCAAAATATTCTTTTCCTTTTATCTTTTCTTTAGTGGTGACGCCATTATATCAGCAGTTTGCTG"}, "B4": {"name": "Chicken calicivirus (nucleic acid)", "DNA": "GGTGCATCATCACTGAACACCCTCGGGCAGAGATGCAAGGGTGGAAGTCACTCCTGCCCCCTGGCAACATGCAGGTGCCCGATCCCAAGCTTAGTTCTGACTTCCTCTCCTGGGTGGTGCAACACTCCAAGGTTGATGAACAAACCTGGAGGGACCTCTGGGCAACCTGGTCTCTCGAGGATCTCCGGCGCATCTCCACAGACTACCTCATGCTCCCGGAACCTGAGAAGAACACTGATGCCTATGATGGCTGGCTGATGGTCGGCGAGATGTTGACCTTTGCCGGTCTCATTGGCTGGGAGG"}}}
{"test_system": "HEK293 cells", "assay_type": "cell-based, human", "details": "luminescence from secreted Gluc in supernatant 24 hours after transfection of HEK293 cells; circular RNA encoding Gluc with the named IRES (UTR truncated to 675 nt)"}
{"molecule": "B1", "Expression": "1.21E+05"}
{"molecule": "B2", "Expression": "3.16E+05"}
{"molecule": "B3", "Expression": "1.51E+07"}
{"molecule": "B4", "Expression": "1.28E+05"}
